Test results from article PMC12220977 (2025).

T1: SorLA VPS10 domain (vacuolar protein sorting 10 domain)
T1 chain: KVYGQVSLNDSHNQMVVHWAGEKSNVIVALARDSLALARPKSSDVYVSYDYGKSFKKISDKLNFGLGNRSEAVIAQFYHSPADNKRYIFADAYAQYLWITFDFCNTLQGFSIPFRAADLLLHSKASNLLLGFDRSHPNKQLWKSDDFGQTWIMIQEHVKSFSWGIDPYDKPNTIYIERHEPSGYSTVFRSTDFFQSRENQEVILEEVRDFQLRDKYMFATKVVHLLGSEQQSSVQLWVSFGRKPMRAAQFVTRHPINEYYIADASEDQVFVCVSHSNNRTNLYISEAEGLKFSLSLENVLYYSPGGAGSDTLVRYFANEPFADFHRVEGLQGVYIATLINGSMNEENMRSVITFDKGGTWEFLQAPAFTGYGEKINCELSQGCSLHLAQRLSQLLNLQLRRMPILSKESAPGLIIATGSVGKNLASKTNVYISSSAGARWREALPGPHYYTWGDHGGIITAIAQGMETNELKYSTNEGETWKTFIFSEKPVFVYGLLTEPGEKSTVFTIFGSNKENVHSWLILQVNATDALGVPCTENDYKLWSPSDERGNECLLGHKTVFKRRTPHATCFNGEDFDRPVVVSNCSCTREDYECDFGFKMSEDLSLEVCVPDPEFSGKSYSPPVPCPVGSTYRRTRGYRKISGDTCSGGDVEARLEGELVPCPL


Experiments:
[1] = target: PAI-1WT (wild-type plasminogen activator inhibitor 1, recombinant) (UniProt P05121); assay: SPR; competition: 250 nM PAI-1WT preincubated with increasing concentrations of SMB, then flowed over immobilised full-length SorLA; HBS-P buffer with 1.0 mM CaCl2, pH 7.4, 25°C
[2] = target: T2, Soluble full-length SorLA (sortilin-related receptor 1) (UniProt Q92673 82-2137); assay: SPR
[3] = target: T1, SorLA VPS10 domain (vacuolar protein …); assay: SPR
[4] = target: T2, Soluble full-length SorLA …; assay: SPR; SorLA or its VPS10 domain immobilised on a CM5 chip (5,000 and 2,500 RU); PAI-1 flowed over; HBS-P buffer with 1.0 mM CaCl2, pH 7.4, 25°C, 20 uL/min; equilibrium analysis (Req/Rmax), single binding site

IC50 [1] [nM] | Kd [2] [nM] | Kd [3] [nM] | Kd [4] [nM] | Molecule
464 |  |  |  | Somatomedin B (SMB) domain of vitronectin (VTN) (from UniProt P04004 20-63) (domain or fragment)
 | 102 | 1590 | 126 | PAI-1WT (wild-type plasminogen activator inhibitor 1, recombinant) (natural protein) VHHPPSYVAHLASDFGVRVFQQVAQASKDRNVVFSPYGVASVLAMLQLTTGGETQQQIQAAMGFKIDDKGMAPALRHLYKELMGPWNKDEISTTDAIFVQRDLKLVQGFMPHFFRLFRSTVKQVDFSEVERARFIINDWVKTHTKGMISHLLGTGAVDQLTRLVLVNALYFNGQWKTPFPDSSTHRRLFHKSDGSTVSVPMMAQTNKFNYTEFTTPDGHYYDILELPYHGDTLSMFIAAPYEKEVPLSALTNILSAQLISHWKGNMTRLPRLLVLPKFSLETEVDLRKPLENLGMTDMFRQFQADFTSLSDQEPLHVALALQKVKIEVNESGTVASSSTAVIVSARMAPEEIIIDRPFLFVVRHNPTGTVLFMGQVMEP
 | 491 |  | 540 | PAI-1AK (PAI-1 Arg101Ala, Gln123Lys) (natural protein) VHHPPSYVAHLASDFGVRVFQQVAQASKDRNVVFSPYGVASVLAMLQLTTGGETQQQIQAAMGFKIDDKGMAPALRHLYKELMGPWNKDEISTTDAIFVQADLKLVQGFMPHFFRLFRSTVKKVDFSEVERARFIINDWVKTHTKGMISHLLGTGAVDQLTRLVLVNALYFNGQWKTPFPDSSTHRRLFHKSDGSTVSVPMMAQTNKFNYTEFTTPDGHYYDILELPYHGDTLSMFIAAPYEKEVPLSALTNILSAQLISHWKGNMTRLPRLLVLPKFSLETEVDLRKPLENLGMTDMFRQFQADFTSLSDQEPLHVALALQKVKIEVNESGTVASSSTAVIVSARMAPEEIIIDRPFLFVVRHNPTGTVLFMGQVMEP
